# PMC12172627
# Like-named read-outs stand apart in the source and are kept apart here.
# Columns and labels:
# Assay in all cases: EMSA
# E2F1 full-length [1] = target: T1, E2F1 full-length (human, UniProt Q01094 1-437)
# E2F1 DBD L132E = E2F1 DBD L132E (UniProt Q01094 110-194, L132E)
# E2F1 DBD R166H = E2F1 DBD R166H (UniProt Q01094 110-194, R166H)
# E2F1 full-length [2] = target: T1, E2F1 full-length; remark: listed apart in the source
# E2F1 full-length [3] = target: T1, E2F1 full-length; remark: listed apart in the source
# T1 sequence (Q01094 whole entry): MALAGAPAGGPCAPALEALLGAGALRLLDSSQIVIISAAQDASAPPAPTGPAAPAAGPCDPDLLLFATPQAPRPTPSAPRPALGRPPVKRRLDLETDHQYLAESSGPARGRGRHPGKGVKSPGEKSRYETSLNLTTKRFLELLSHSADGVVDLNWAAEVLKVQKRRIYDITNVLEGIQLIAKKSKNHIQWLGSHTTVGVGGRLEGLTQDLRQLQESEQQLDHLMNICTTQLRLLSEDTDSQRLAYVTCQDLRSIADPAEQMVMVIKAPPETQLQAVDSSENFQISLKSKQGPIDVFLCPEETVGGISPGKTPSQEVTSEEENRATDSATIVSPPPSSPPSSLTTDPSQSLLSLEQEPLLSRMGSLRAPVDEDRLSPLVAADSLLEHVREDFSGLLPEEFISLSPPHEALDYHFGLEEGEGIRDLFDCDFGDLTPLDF
# E2F1 DBD L132E, sequence (Q01094 110-194 L132E): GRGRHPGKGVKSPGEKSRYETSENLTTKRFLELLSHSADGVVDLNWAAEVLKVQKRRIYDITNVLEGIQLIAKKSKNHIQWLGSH
# E2F1 DBD R166H, sequence (Q01094 110-194 R166H): as the sequence (Q01094 110-194 L132E) above, with E23L, R57H counted along it
binder,measurement,setting,value
42-mer dsDNA (2XE2F1_DNA_BS) (dsDNA) DNA 1: GCCGTTTTCGCGCTTAAATTTGAGAAAGGGCGCGAAACTGGA DNA 2: TCCAGTTTCGCGCCCTTTCTCAAATTTAAGCGCGAAAACGGC,binding result,E2F1 full-length [1],binds
same,binding result,E2F1 DBD L132E,binds
same,binding result,E2F1 DBD R166H,binds
AUCGAUUUCCAGCUCGAUCGAUCGAGCUGGAAAUCGAU (structured_RNA) [BS1 double stranded (stem)],binding result,E2F1 full-length [2],binds
AUCGAUUCCCCGCUCGAUCGAUCGAGCGGGGAAUCGAU (structured_RNA) [BS3 double stranded (stem)],binding result,E2F1 full-length [3],binds
AUCGAUUUCCCUCUCGAUCGAUCGAGAGGGAAAUCGAU (structured_RNA) [BS4 double stranded (stem)],binding result,E2F1 full-length [2],binds
AUCGAUUUCCCGCUCGAUCGAUCGAGCGGGAAAUCGAU (structured_RNA) [BS2 double stranded (stem)],binding result,E2F1 full-length [2],binds
